{"source": "paper PMC4118983", "about": "“Structural Insights into Calcium-Bound S100P and the V Domain of the RAGE Complex” (PLoS ONE, 2014)", "binders": {"B1": {"name": "Recombinant wild-type S100P (residues 1–95), calcium-bound (natural protein, UniProt P25815 1-95, looked up)", "chain": "MTELETAMGMIIDVFSRYSGSEGSTQTLTKGELKVLMEKELPGFLQSGKDKDAVDKLLKDLDANGDAQVDFSEFIVFVAAITSACHKYFEKAGLK", "notes": "S100P, residues 1-95; 15N-labelled or unlabelled in the NMR experiments; it names no tag; also called WS100P; source: E. coli BL21(DE3), pET-20b(+), purified (size exclusion chromatography, Superdex 75)"}, "B2": {"name": "S100P D13A single mutant (natural protein, UniProt P25815 1-95, looked up)", "chain": "B1 chain with D13A", "notes": "S100P, residues 1-95, with D13A; Used with 4 mM CaCl2; source: E. coli BL21(DE3), pET-20b(+), purified (size exclusion chromatography, Superdex 75)"}, "B3": {"name": "S100P E5A single mutant (natural protein, UniProt P25815 1-95, looked up)", "chain": "B1 chain with E5A", "notes": "S100P, residues 1-95, with E5A; Used with 4 mM CaCl2; source: E. coli BL21(DE3), pET-20b(+), purified (size exclusion chromatography, Superdex 75)"}, "B4": {"name": "S100P F44G/Y88G/F89G triple mutant (natural protein, UniProt P25815 1-95, looked up)", "chain": "B1 chain with F44G, Y88G, F89G", "notes": "S100P, residues 1-95, with F44G, Y88G and F89G; Section 2.2 prints 'F44G/Y89G/F89G'; every other place prints F44G/Y88G/F89G; Used with 4 mM CaCl2; also called S100P F44G/Y89G/F89G (as printed in the methods); source: E. coli BL21(DE3), pET-20b(+), purified (size exclusion chromatography, Superdex 75)"}}, "key": {"[1]": {"target": "T1, Recombinant RAGE V domain (residues 24–121) (UniProt Q15109 24-121)", "T1 construct": "Receptor for advanced glycation end products (RAGE), V domain, residues 24-121; Purified as a monomer; 15N- or 15N,13C-labelled or unlabelled in the NMR experiments; also called V domain of RAGE; not shown: His6, N-terminal, cleaved", "T1 sequence (Q15109 24-121)": "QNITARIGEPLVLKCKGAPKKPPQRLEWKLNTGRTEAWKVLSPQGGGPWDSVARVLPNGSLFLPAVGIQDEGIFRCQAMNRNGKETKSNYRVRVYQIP", "test": "other fluorescence titration; intrinsic tryptophan fluorescence of 2 µM RAGE V domain (excitation 295 nm, emission 348.5 nm), S100P added in increments; 20 mM Tris-HCl pH 7.0, 100 mM NaCl, 4 mM CaCl2; 25°C; one-site binding model", "conditions": "both partners purified"}, "[2]": {"target": "T1, Recombinant RAGE V domain (residues …)", "test": "cell-based or functional assay"}, "[3]": {"target": "the molecule itself", "test": "SEC; S100P proteins on a Superdex 75 column (1.6×60 cm), last step of purification"}, "[4]": {"target": "T1, Recombinant RAGE V domain (residues …)", "test": "ITC; S100P (2.0 mM, syringe) titrated into RAGE V domain (0.06 mM, cell); MicroCal VP-ITC; 25°C; 20 mM Tris-HCl pH 7.0, 100 mM NaCl, 4 mM CaCl2; single-site model; similar approach for the S100P mutants", "conditions": "both partners purified"}}, "note": "Changes are numbered by the printed parent chain. In names and notes the source's numbering stands. Several values for one entry are separate records, joined by “and”; a condition that tells them apart may be missing. Equal values may be shown once."}
{"binder": "B1", "values": [{"measurement": "Kd", "setting": "[1]", "value": "~6.8", "unit": "µM"}, {"measurement": "SW-480 cell proliferation (MTT assay, 48 h), 100 nM wild-type S100P, viable cell count against the control", "setting": "[2]", "value": "~1.5", "unit": "fold"}, {"measurement": "stoichiometry N", "setting": "[3]", "value": 2}, {"measurement": "Kd", "setting": "[4]", "value": "6.2 ± 0.1", "unit": "µM"}, {"measurement": "dH", "setting": "[4]", "value": "4.094 ± 0.02", "unit": "kcal/mol"}, {"measurement": "stoichiometry N", "setting": "[4]", "value": "1.07 ± 0.03"}]}
{"binder": "B2", "values": [{"measurement": "stoichiometry N", "setting": "[3]", "value": 2}, {"measurement": "Kd", "setting": "[4]", "value": 878, "unit": "µM"}]}
{"binder": "B3", "values": [{"measurement": "stoichiometry N", "setting": "[3]", "value": 2}, {"measurement": "Kd", "setting": "[4]", "value": "22.8 µM and 23.6 µM"}]}
{"binder": "B4", "values": [{"measurement": "stoichiometry N", "setting": "[3]", "value": 2}]}
